# Where “and” joins values, the source holds several entries; their conditions need not be identical. Equal values may be shown once.
# T1: human IL-17F (human, UniProt Q96PD4 31-163)
# T1 construct: made in Hek293 cells (GenBank AF384857); also called hIL-17F; hIL17F
# T1 sequence: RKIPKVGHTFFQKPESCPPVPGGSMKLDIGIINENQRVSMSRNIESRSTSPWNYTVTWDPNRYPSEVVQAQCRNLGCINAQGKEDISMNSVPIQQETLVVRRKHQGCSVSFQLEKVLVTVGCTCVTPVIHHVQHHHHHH
# T2: mouse IL-17F (mouse, UniProt Q7TNI7 29-161)
# T2 sequence (looked up): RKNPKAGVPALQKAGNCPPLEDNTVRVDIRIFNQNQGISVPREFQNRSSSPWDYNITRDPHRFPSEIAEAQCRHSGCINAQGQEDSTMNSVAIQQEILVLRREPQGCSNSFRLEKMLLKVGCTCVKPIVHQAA
# T3: rat IL-17F (rat, UniProt Q5BJ95 29-161)
# T3 sequence (looked up): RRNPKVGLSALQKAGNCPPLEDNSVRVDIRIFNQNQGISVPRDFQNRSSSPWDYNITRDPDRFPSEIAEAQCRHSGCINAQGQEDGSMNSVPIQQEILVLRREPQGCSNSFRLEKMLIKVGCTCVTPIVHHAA
# T4: rat IL-17A (rat, UniProt Q61453 18-150, limits assumed)
# T4 sequence (looked up): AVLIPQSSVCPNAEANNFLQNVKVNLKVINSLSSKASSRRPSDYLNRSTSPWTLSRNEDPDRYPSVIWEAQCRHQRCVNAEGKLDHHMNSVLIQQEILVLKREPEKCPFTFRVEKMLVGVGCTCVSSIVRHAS
# T5: mouse IL-17A (mouse, UniProt Q62386 26-158)
# T5 sequence (looked up): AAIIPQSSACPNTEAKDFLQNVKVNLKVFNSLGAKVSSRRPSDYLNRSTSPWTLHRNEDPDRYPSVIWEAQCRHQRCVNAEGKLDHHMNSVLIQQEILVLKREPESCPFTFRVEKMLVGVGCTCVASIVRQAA
# T6: marmoset IL-17A (marmoset, IL-17A is a disulfide-linked homodimer. One chain is given.)
# T6 chain: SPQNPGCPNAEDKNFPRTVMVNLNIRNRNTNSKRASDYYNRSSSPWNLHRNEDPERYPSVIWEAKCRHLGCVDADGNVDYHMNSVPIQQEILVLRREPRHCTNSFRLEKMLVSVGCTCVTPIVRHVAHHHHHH
# T7: human IL-17F (human, UniProt Q96PD4 31-163, biotinylated with Sulfo-NHS-LC-Biotin in the AlphaScreen assays only)
# T7 construct: also called hIL-17F; recombinant human IL-17F
# T7 sequence: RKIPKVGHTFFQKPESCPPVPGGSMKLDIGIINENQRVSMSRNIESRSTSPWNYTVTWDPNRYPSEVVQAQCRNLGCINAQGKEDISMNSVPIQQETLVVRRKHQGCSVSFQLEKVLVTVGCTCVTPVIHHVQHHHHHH
# T8: Cynomolgus monkey IL-17F (Cynomolgus monkey, UniProt G7P4V0 31-163)
# T8 sequence: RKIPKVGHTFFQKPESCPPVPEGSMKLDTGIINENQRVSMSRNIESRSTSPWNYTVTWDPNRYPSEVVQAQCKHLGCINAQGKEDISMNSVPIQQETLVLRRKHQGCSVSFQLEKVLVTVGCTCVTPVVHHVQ
# T9: human IL-17F (human, UniProt Q96PD4 31-163)
# T9 sequence: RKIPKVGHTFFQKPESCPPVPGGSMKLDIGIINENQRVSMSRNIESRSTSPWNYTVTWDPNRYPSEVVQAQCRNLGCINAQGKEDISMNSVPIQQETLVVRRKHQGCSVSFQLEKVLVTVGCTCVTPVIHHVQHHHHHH
# T10: Cynomolgus monkey IL-17F (Cynomolgus monkey, UniProt G7P4V0 31-163)
# T10 sequence: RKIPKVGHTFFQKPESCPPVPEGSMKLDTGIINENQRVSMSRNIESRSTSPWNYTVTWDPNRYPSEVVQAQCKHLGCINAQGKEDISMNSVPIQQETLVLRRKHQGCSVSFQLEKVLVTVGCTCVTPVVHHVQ
# T11: marmoset IL-17F (marmoset, UniProt A6N6I9 31-163)
# T11 sequence (looked up): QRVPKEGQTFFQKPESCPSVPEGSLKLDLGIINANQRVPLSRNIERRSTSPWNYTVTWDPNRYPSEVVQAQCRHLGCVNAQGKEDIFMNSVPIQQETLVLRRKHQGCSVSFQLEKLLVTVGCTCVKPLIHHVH
# Tests used:
# [1] = biological target: T1, human IL-17F; experiment: AlphaScreen hIL-17F-IL-17RC; vs IL17MS13E02
# [2] = biological target: T2, mouse IL-17F; experiment: ELISA, coated IL-17F;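 note: binding ELISA on coated antigen from various species, with bound Nanobodies revealed by an HRP-linked anti-myc antibody and esTMB substrate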
# Procedure: (§1) Binding of a selected panel of anti-IL-17 Nanobodies to IL-17 of other species was assessed using a binding ELISA. […] HRP (horseradish peroxidase) conjugated anti-myc (Serotec, MCA 2200P) was used for detection using esTMB as substrate.
# [3] = biological target: T3, rat IL-17F; experiment: ELISA, coated IL-17F;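 note: binding ELISA on coated antigen from various species, with bound Nanobodies revealed by an HRP-linked anti-myc antibody and esTMB substrate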
# Procedure: as §1
# [4] = biological target: T4, rat IL-17A; experiment: ELISA, coated IL-17A
# Procedure: as §1
# [5] = biological target: T12, human IL-17A (human, UniProt Q16552 24-155); experiment: ELISA, coated IL-17A
# T12 construct: secreted form (GenBank U32659) expressed in Hek293 with C-terminal 6-His; also called hIL-17A; IL-17A-6HIS
# Procedure: as §1
# [6] = biological target: T5, mouse IL-17A; experiment: ELISA, coated IL-17A
# Procedure: as §1
# [7] = biological target: guinea pig IL-17A (guinea pig); experiment: ELISA, coated IL-17A
# Procedure: as §1
# [8] = biological target: T6, marmoset IL-17A; experiment: ELISA, coated IL-17A
# Procedure: as §1
# [9] = biological target: T12, human IL-17A; experiment: SPR, IL-17A-Nanobody complex over captured IL-17RA
# Source text: The receptor (IL-17RA or IL-17RC) was captured via its human Fc-tail by an anti-human IgG-Fc antibody coated on the chip.
# [10] = biological target: T12, human IL-17A; experiment: KinExA, 200 pM Nanobody
# [11] = biological target: T13, human IL-17A (human, UniProt Q16552 24-155, biotinylated with Sulfo-NHS-LC-Biotin in the AlphaScreen assays only); experiment: cell-based or functional assay
# [12] = biological target: T14, human IL-17A/F heterodimer (human, UniProt Q16552 24-155; Q96PD4 31-163, limits assumed, biotinylated with Sulfo-NHS-LC-Biotin in the AlphaScreen assays only); experiment: SPR Biacore, hIL-17A/F on chip; periplasmic extract (*); NB = no binding
# T14 construct: also called hIL-17A/F
# Procedure: (§2) Off-rates of the periplasmic extracts containing anti-IL-17 Nanobodies were measured by Surface Plasmon Resonance (SPR) using a Biacore T100 instrument. […] Periplasmic extracts containing IL-17 neutralizing Nanobodies were injected for 2 minutes at a flow rate of 45 μl/min to allow binding to chip-bound antigen. Next, binding buffer without periplasmic extracts was sent over the chip at the same flow rate to allow spontaneous dissociation of bound Nanobody. From the sensorgrams obtained for the different periplasmic extracts koff-values (k₄) were calculated.
# [13] = biological target: T13, human IL-17A; experiment: SPR Biacore, hIL-17A on chip; periplasmic extract (*)
# [14] = biological target: T13, human IL-17A; experiment: AlphaScreen competition, hIL-17A - IL-17RC-Fc;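 note: Read-out after 1 h at room temperature with the receptor Fc-fusion, Acceptor beads and streptavidin-coated Donor beads present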
# Procedure: (§3) To this mixture, the IL-17RA or IL-17RC Fc-fusions, Acceptor beads and the streptavidin Donor beads were added and further incubated for 1 hour at RT.
# [15] = biological target: T7, human IL-17F; experiment: SPR Biacore, hIL-17F on chip; periplasmic extract (*); NB = no binding
# Procedure: as §2
# [16] = biological target: T13, human IL-17A; experiment: AlphaScreen competition, hIL-17A - IL-17RA-Fc;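 note: receptor Fc-fusion plus Acceptor and streptavidin Donor beads incubated with the mixture for 1 h at room temperature before reading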
# Procedure: as §3
# [17] = biological target: T8, Cynomolgus monkey IL-17F; experiment: cell-based or functional assay
# [18] = biological target: Cynomolgus monkey IL-17A (Cynomolgus monkey, UniProt A0A2K5TTB0 24-155); experiment: cell-based or functional assay
# [19] = biological target: T12, human IL-17A; experiment: competition ELISA IL17A-RA
# Procedure: To this end, IL-17RA, respectively IL-17RC was coated at a concentration of 1 μg/ml in PBS.
# [20] = biological target: T12, human IL-17A; experiment: cell-based or functional assay
# [21] = biological target: T9, human IL-17F; experiment: cell-based or functional assay
# [22] = biological target: T12, human IL-17A; experiment: KinExA, 300 pM Nanobody
# Procedure: (§4) The affinity of a limited set of formatted Nanobodies was determined using the KinExA.
# [23] = biological target: T9, human IL-17F; experiment: KinExA, 300 pM Nanobody
# Procedure: as §4
# [24] = biological target: T10, Cynomolgus monkey IL-17F; experiment: cell-based or functional assay; remark: listed apart in the source
# [25] = biological target: T1, human IL-17F; experiment: cell-based or functional assay; remark: listed apart in the source
# [26] = biological target: T1, human IL-17F; experiment: AlphaScreen IL-17F-IL-17RC; vs IL17MS16A04
# [27] = biological target: T10, Cynomolgus monkey IL-17F; experiment: SPR (Biacore) off-rate
# [28] = biological target: T1, human IL-17F; experiment: SPR (Biacore) off-rate
# [29] = biological target: T12, human IL-17A; experiment: AlphaScreen IL-17A-IL-17RA, average
# [30] = biological target: T12, human IL-17A; experiment: KinExA, 600 pM Nanobody
# [31] = biological target: T11, marmoset IL-17F; experiment: ELISA, coated IL-17F;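 note: binding ELISA on coated antigen from various species, with bound Nanobodies revealed by an HRP-linked anti-myc antibody and esTMB substrate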
# Procedure: as §1
# [32] = biological target: T9, human IL-17F; experiment: ELISA, coated IL-17F;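 note: binding ELISA on coated antigen from various species, with bound Nanobodies revealed by an HRP-linked anti-myc antibody and esTMB substrate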
# Procedure: as §1
# [33] = biological target: T12, human IL-17A; experiment: SPR
# [34] = biological target: T15, human IL-17A/F heterodimer (human, UniProt Q16552 24-155; Q96PD4 31-163, limits assumed); experiment: SPR
# T15 construct: produced in E. coli, bought from R&D Systems (Cat 5194-IL/CF); also called hIL-17A/F
# T15 sequence (Q16552 24-155 limits assumed, one chain of several): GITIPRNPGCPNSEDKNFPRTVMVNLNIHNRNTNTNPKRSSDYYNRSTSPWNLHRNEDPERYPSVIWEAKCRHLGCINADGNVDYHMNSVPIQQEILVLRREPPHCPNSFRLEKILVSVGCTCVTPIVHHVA
# T12 sequence (Q16552 other isoform, or with tags, fused parts or gaps): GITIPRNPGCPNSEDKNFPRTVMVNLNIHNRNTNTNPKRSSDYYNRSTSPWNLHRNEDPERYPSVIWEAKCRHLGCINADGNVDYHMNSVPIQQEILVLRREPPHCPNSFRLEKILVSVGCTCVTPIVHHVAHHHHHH
# T13 sequence (Q16552 other isoform, or with tags, fused parts or gaps): as above
# T14 sequence (Q16552 24-155 limits assumed, one chain of several): as the sequence (Q16552 24-155 limits assumed, one chain of several) above
# Cynomolgus monkey IL-17A, sequence (A0A2K5TTB0 entry or part of it): as the sequence (Q16552 24-155 limits assumed, one chain of several) above, with T3A, P8S, N34S, I77V, N78K, P104R counted along it
binder,measurement,setting,value
"IL17MS3071 (VHH, variant of IL17MS13E02; Kabat numbering) VHH: EVQLVESGGGLVQPGGSLRLSCAASGRTYDALGWLRQAPGKEREFVAAISGSGDDTYYADSVKGRFTISRDNSKNTLYLQMNSLRPEDTAVYYCATRRGLYYVWDANDYENWGQGTLVTVSS",IC50 fold difference vs WT,[1],0.3 fold
"01A01 (VHH, Class 4) VHH: EVQLVESGGGLVQAGGSLRLSCAASGFTFDDYDIGWFRQAPGKEREGVSCFTSSDGRTFYADSVKGRFTVSADNAKNTVYLQMNSLEPEDTAVYFCAAVNTFDESAYAAFACYDVVRWGQGTQVTVSS",OD,[2],-0.0005 OD
same,OD,[3],0.0005 OD
same,OD,[4],0.004 OD
same,OD,[5],1.83 OD
same,OD,[6],-0.003 OD
same,OD,[7],0.008 OD
same,OD,[8],1.84 OD
same,% Biacore binding (IL-17A-NB)-IL-17RA,[9],-1.04%
same,Kd,[10],1.3 pM
"03B08 (VHH, Class 1 Nanobody (anti-IL-17A); not shown: c-myc, His6 tag) VHH: EVQLVESGGGLVQAGGSLRLSCAASGFTFDDYAIGWFRQAPGKEREGVSCISSSDGSIYYADSVKGRFTISSDNAKNTVYLQMNSLKPEDTAVYHCARFGRTGWAEECVDYDYWGQGTQVTVSS","IL-17A-induced IL-6 production in HT-1080 cells, Emax",[11],98.5%
same,"IL-17A-induced IL-6 production in HT-1080 cells, IC50",[11],3.6 nM
same,binding result,[12],no binding
same,koff,[13],0.0001 s⁻¹
same,IC50,[14],0.384 nM
same,binding result,[15],no binding
same,IC50,[16],0.08 nM
"13B03-SH-Fc (Fc fusion, not shown: a dimerising Fc or GST, bivalent Fc fusion from Hek-293-6E cells; signal peptide left out; also called MSB0010493; 13B03VHH-SH-Fc) EVQLVESGGGSVQAGDSLRLSCAASGRANSINWFGWFRQTPGKEREFVAGIRWSDAYTEYANSVKGRFTISRDNAKNTVDLQMDSLKPEDTAVYYCVLDLSTVRYWGQGTQVTVSSEPKSSDKTHTCPPCP","IC50, Cyno IL17F, HT-1080 bioassay",[17],3.8 nM
same,"IC50, Cyno IL17A, HT-1080 bioassay",[18],0.21 nM
same,IC50,[19],0.02 nM
same,"Emax, hIL-17A induced IL-6, HT-1080, without HSA",[20],100%
same,"IC50, hIL-17A induced IL-6, HT-1080, without HSA",[20],0.19 nM
same,"IC50, hIL-17F induced IL-6, HT-1080, without HSA",[21],5.8 nM
same,Kd,[22],0.2 pM
same,Kd,[23],0.132 nM
"IL17MS3063 (VHH, variant of IL17MS16A04; Kabat numbering) VHH: DVQLVESGGGLVQPGGSLRLSCAASGRTFSSYVVGWFRQAPGKEREFIGAISGSGESIYYAVSEKGRFTISRDNSKNTLYLQMNSLRPEDTAVYYCTADQEFGYLRFGRSEYWGQGTLVTVSS",IC50 cell based assay cyno IL-17F,[24],34.2 nM
same,IC50 cell based assay hIL-17F,[25],14 nM
same,IC50 fold difference vs WT,[26],3.7 fold
same,koff,[27],0.00111 s⁻¹
same,koff,[28],0.000655 s⁻¹
"01G03 (VHH, Class 1 Nanobody (anti-IL-17A); not shown: c-myc, His6 tag) VHH: EVQLVESGGGLVQAGGSLRLSCAASERTISNYDMGWFRQAPGKERELIAADISWSALNTNYADSVKGRFTISRDNAKNMVYLQMNNLKPEDTAVYYCAARRSGYASFDNWGQGTQVTVSS","IL-17A-induced IL-6 production in HT-1080 cells, Emax",[11],85.7%
same,"IL-17A-induced IL-6 production in HT-1080 cells, IC50",[11],68.3 nM
same,binding result,[12],no binding
same,koff,[13],0.00045 s⁻¹
same,IC50,[14],1.15 nM
same,binding result,[15],no binding
same,IC50,[16],0.325 nM
"04G01 (VHH, Class 2; also called IL17MS04G01) VHH: EVQLVESGGGLVQAGGSQRLSCTASGTIVNIHVMGWYRQAPGKQRELVALIFSGGSADYADSVKGRFTISRDNAKNTVYLEMNSLKAEDTAVYYCAAEIGYYSGGTYYSSEAHWGQGTQVTVSS",IC50,[29],0.093 nM
same,Kd,[30],0.0134 nM
same,OD,[31],0.0005 OD
same,OD,[32],-0.016 OD
same,OD,[4],0.004 OD
same,OD,[5],1.9 OD
same,OD,[6],-0.001 OD
same,OD,[7],0.008 OD
same,OD,[8],1.93 OD
same,koff,[33],0.00018 s⁻¹ and 0.000116 s⁻¹
same,koff,[34],0.00023 s⁻¹ and 0.00017 s⁻¹
same,% Biacore binding (IL-17A-NB)-IL-17RA,[9],-0.43%

# Source: US20210130452A1 (Merck KGaA, published 2021)
